Data taken from patent US20230257472A1.

Target: His-tagged CD70 protein extracellular domain (His-TNC-CD70) (human)
Assay: phage ELISA, 2 ug/mL His-TNC-CD70 coated, anti-M13-HRP

His-tagged CD70 protein extracellular domain (His-TNC-CD70) (human), sequence (chain, as listed by the source limits assumed): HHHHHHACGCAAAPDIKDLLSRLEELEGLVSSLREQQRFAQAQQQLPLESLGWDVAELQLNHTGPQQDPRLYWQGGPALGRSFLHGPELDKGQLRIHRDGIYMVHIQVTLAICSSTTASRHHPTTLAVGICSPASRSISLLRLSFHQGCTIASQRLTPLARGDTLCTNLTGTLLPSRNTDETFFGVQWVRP

B1: B1 phage display single-chain antibody (scFv, part only; not given: scFv linker, phage partner, tag, V domains shown, not shown: another chain or arm of the molecule; large carriers; small tags and cut ends)
VH: QVQMQQSGAELVKPGASVMMSCKASGYTFTTYNIHWIKQTPGQGLEWIGDIYPGNGDASYNQKFRDRATLTADRSSSTAYLQLSSLTSEDSAIYYCATFSRFDGWFAYWGQGTLVTVSA
VL: DIVMSQSPASLAVSLGQRATISCRASRSVSTSGYSYMHWYQQKPGQPPKLLIYLASNLESGVPARFSGSGSGTNFTLNIHPVEEEDAATYYCQHSRELPYTFGGGTKLEIK
Q: For B1, which Reading at OD450 nm of microplate reader is on record?
A: Its Reading at OD450 nm of microplate reader is 1.16 OD450.

B2: F4 phage display single-chain antibody (scFv, part only; not given: scFv linker, phage partner, tag, V domains shown, not shown: another chain or arm of the molecule; large carriers; small tags and cut ends)
VH: QVQLKQSGAELVKPGASVKMSCKASGDTFPRYNMHWLKQTPGQGLEWIGAIFPGNGETSYNQNFKGKATLTADKSSSTAYMQLNSLTSEDSAVYYCARNSYYDYAWFTYWGQGTLVTVSA
VL: DIVMTQSPASLDVSLGQRATISCRASKSVSSSGYSFMHWYQQKPGQPPKLLISLASNLESGVPARFSGSGSGTDFTLTIYPVEEEDAATYYCQHSREFPPTFGSGTKLEIK
Q: For B2, which Reading at OD450 nm of microplate reader is on record?
A: Its Reading at OD450 nm of microplate reader is 1.09 OD450.

B3: B7 phage display single-chain antibody (scFv, part only; not given: linker; VH end may be cut, part only)
scFv, part: QIQLVQSGPELKKPGETVKISCKTSGYTFTNYGMNWVRQAPGKGLKWMGWINTYTGEPTYADDFKGRFAFSLETSAGTAYLQINNLENEDTATYFCARGDSFTTEILRNWYFDVWGAGTTDIQMTQTPASLSASVGETVTITCGASENIYGALNWYQRKQGKSPQLLIYGATNLADGMSSRFSGSGSGRQYSLKISSLHPDDVATYYCQNVLSTPWTFGGGTKLEMK
Q: With B3 as the binder, how does the Reading at OD450 nm of microplate reader read?
A: Its Reading at OD450 nm of microplate reader is 1.97 OD450.
